Legend:
HeLa Kyoto [1] = experiment: solubility in G1/S (NP-40 vs SDS abundance) (log2 ratio); higher = more soluble; settings: cell cycle stage: G1/S
HeLa Kyoto [2] = experiment: melting temperature (median over replicates), in situ; higher = more thermally stable
HeLa Kyoto [3] = experiment: solubility change mitosis vs G1/S (difference of NP-40 vs SDS log2 ratios) (log2 ratio difference); higher = more soluble in mitosis
HeLa Kyoto [4] = experiment: thermal stability score vs G1/S (z-score of summed log2 fold changes over temperatures); higher = more thermally stable than in G1/S
[5] = cell cycle stage: early G1 (4.5 h after nocodazole release)
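Wherever melting temperature (median over replicates), in situ is given: HeLa Kyoto cells synchronized by double thymidine or nocodazole block, proteins quantified by TMT10plex mass spectrometry, three independent biological replicates.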
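Wherever solubility change mitosis vs G1/S (difference of NP-40 vs SDS log2 ratios) is given: synchronized HeLa Kyoto cells (double thymidine block for G1/S, nocodazole release for mitosis), protein amounts in NP-40 versus SDS lysates quantified by mass spectrometry, three biological replicates.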
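Wherever solubility in G1/S (NP-40 vs SDS abundance) is given: HeLa Kyoto cells arrested at G1/S by double thymidine block, proteins quantified by TMT10plex mass spectrometry in mild NP-40 versus SDS extracts, three biological replicates.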
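Wherever thermal stability score vs G1/S (z-score of summed log2 fold changes over temperatures) is given: synchronized HeLa Kyoto cells, proteins quantified by TMT10plex mass spectrometry, three biological replicates, mitosis taken 0.5 h after nocodazole release, G1/S directly after double thymidine block.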

## MAASQTSQTVASHVPFADLCSTLERIQKSKGRAEKIRHFREFLDSWRKFHDALHKNHKDVTDSFYPAMRLILPQLERERMAYGIKETMLAKLYIELLNLPRDGKDALKLLNYRTPTGTHGDAGDFAMIAYFVLKPRCLQKGSLTIQQVNDLLDSIASNNSAKRKDLIKKSLLQLITQSSALEQKWLIRMIIKDLKLGVSQQTIFSVFHNDAAELHNVTTDLEKVCRQLHDPSVGLSDISITLFSAFKPMLAAIADIEHIEKDMKHQSFYIETKLDGERMQMHKDGDVYKYFSRNGYNYTDQFGASPTEGSLTPFIHNAFKADIQICILDGEMMAYNPNTQTFMQKGTKFDIKRMVEDSDLQTCYCVFDVLMVNNKKLGHETLRKRYEILSSIFTPIPGRIEIVQKTQAHTKNEVIDALNEAIDKREEGIMVKQPLSIYKPDKRGEGWLKIKPEYVSGLMDELDILIVGGYWGKGSRGGMMSHFLCAVAEKPPPGEKPSVFHTLSRVGSGCTMKELYDLGLKLAKYWKPFHRKAPPSSILCGTEKPEVYIEPCNSVIVQIKAAEIVPSDMYKTGCTLRFPRIEKIRDDKEWHECMTLDDLEQLRGKASGKLASKHLYIGGDDEPQEKKRKAAPKMKKVIGIIEHLKAPNLTNVNKISNIFEDVEFCVMSGTDSQPKPDLENRIAEFGGYIVQNPGPDTYCVIAGSENIRVKNIILSNKHDVVKPAWLLECFKTKSFVPWQPRFMIHMCPSTKEHFAREYDCYGDSYFIDTDLNQLKEVFSGIKNSNEQTPEEMASLIADLEYRYSWDCSPLSMFRRHTVYLDSYAVINDLSTKNEGTRLAIKALELRFHGAKVVSCLAEGVSHVIIGEDHSRVADFKAFRRTFKRKFKILKESWVTDSIDKCELQEENQYLI [LIG4]
HeLa Kyoto [1]
  solubility in G1/S (log2): -0.0399
HeLa Kyoto [2]; cell cycle stage: G1/S
  melting temperature: 48.4 °C
HeLa Kyoto [2]; cell cycle stage: mitosis
  melting temperature: 49.6 °C
HeLa Kyoto [3]
  solubility change mitosis (log2): -0.329
HeLa Kyoto [4]; [5]
  thermal stability score: 0.0186
HeLa Kyoto [4]; cell cycle stage: mitosis
  thermal stability score: 0.758

## MAHVGSRKRSRSRSRSRGRGSEKRKKKSRKDTSRNCSASTSQGRKASTAPGAEASPSPCITERSKQKARRRTRSSSSSSSSSSSSSSSSSSSSSSSSSDGRKKRGKYKDKRRKKKKKRKKLKKKGKEKAEAQQVEALPGPSLDQWHRSAGEEEDGPVLTDEQKSRIQAMKPMTKEEWDARQSIIRKVVDPETGRTRLIKGDGEVLEEIVTKERHREINKQATRGDCLAFQMRAGLLP [ARL6IP4]
HeLa Kyoto [1]
  solubility in G1/S (log2): -0.997
HeLa Kyoto [2]; cell cycle stage: G1/S
  melting temperature: 52.6 °C
HeLa Kyoto [2]; cell cycle stage: mitosis
  melting temperature: 52 °C
HeLa Kyoto [3]
  solubility change mitosis (log2): 0.853
HeLa Kyoto [4]; [5]
  thermal stability score: -1.78
HeLa Kyoto [4]; cell cycle stage: mitosis
  thermal stability score: -3.1

## MPLLGLLPRRAWASLLSQLLRPPCASCTGAVRCQSQVAEAVLTSQLKAHQEKPNFIIKTPKGTRDLSPQHMVVREKILDLVISCFKRHGAKGMDTPAFELKETLTEKYGEDSGLMYDLKDQGGELLSLRYDLTVPFARYLAMNKVKKMKRYHVGKVWRRESPTIVQGRYREFCQCDFDIAGQFDPMIPDAECLKIMCEILSGLQLGDFLIKVNDRRIVDGMFAVCGVPESKFRAICSSIDKLDKMAWKDVRHEMVVKKGLAPEVADRIGDYVQCHGGVSLVEQMFQDPRLSQNKQALEGLGDLKLLFEYLTLFGIADKISFDLSLARGLDYYTGVIYEAVLLQTPTQAGEEPLNVGSVAAGGRYDGLVGMFDPKGHKVPCVGLSIGVERIFYIVEQRMKTKGEKVRTTETQVFVATPQKNFLQERLKLIAELWDSGIKAEMLYKNNPKLLTQLHYCESTGIPLVVIIGEQELKEGVIKIRSVASREEVAIKRENFVAEIQKRLSES [HARS2]
HeLa Kyoto [1]
  solubility in G1/S (log2): 0.0324
HeLa Kyoto [2]; cell cycle stage: G1/S
  melting temperature: 53.6 °C
HeLa Kyoto [2]; cell cycle stage: mitosis
  melting temperature: 53.3 °C
HeLa Kyoto [3]
  solubility change mitosis (log2): -0.0551
HeLa Kyoto [4]; [5]
  thermal stability score: 2.43
HeLa Kyoto [4]; cell cycle stage: mitosis
  thermal stability score: 1.63

## MVGRNSAIAAGVCGALFIGYCIYFDRKRRSDPNFKNRLRERRKKQKLAKERAGLSKLPDLKDAEAVQKFFLEEIQLGEELLAQGEYEKGVDHLTNAIAVCGQPQQLLQVLQQTLPPPVFQMLLTKLPTISQRIVSAQSLAEDDVE [TOMM20]
HeLa Kyoto [1]
  solubility in G1/S (log2): 0.747
HeLa Kyoto [2]; cell cycle stage: G1/S
  melting temperature: 49.7 °C
HeLa Kyoto [2]; cell cycle stage: mitosis
  melting temperature: 51.7 °C
HeLa Kyoto [3]
  solubility change mitosis (log2): 0.294
HeLa Kyoto [4]; [5]
  thermal stability score: -2.96
HeLa Kyoto [4]; cell cycle stage: mitosis
  thermal stability score: -4.96

## MAAMAVALRGLGGRFRWRTQAVAGGVRGAARGAAAGQRDYDLLVVGGGSGGLACAKEAAQLGRKVAVVDYVEPSPQGTRWGLGGTCVNVGCIPKKLMHQAALLGGLIQDAPNYGWEVAQPVPHDWRKMAEAVQNHVKSLNWGHRVQLQDRKVKYFNIKASFVDEHTVCGVAKGGKEILLSADHIIIATGGRPRYPTHIEGALEYGITSDDIFWLKESPGKTLVVGASYVALECAGFLTGIGLDTTIMMRSIPLRGFDQQMSSMVIEHMASHGTRFLRGCAPSRVRRLPDGQLQVTWEDSTTGKEDTGTFDTVLWAIGRVPDTRSLNLEKAGVDTSPDTQKILVDSREATSVPHIYAIGDVVEGRPELTPIAIMAGRLLVQRLFGGSSDLMDYDNVPTTVFTPLEYGCVGLSEEEAVARHGQEHVEVYHAHYKPLEFTVAGRDASQCYVKMVCLREPPQLVLGLHFLGPNAGEVTQGFALGIKCGASYAQVMRTVGIHPTCSEEVVKLRISKRSGLDPTVTGCUG [TXNRD2]
HeLa Kyoto [1]
  solubility in G1/S (log2): 0.0295
HeLa Kyoto [2]; cell cycle stage: G1/S
  melting temperature: 53.6 °C
HeLa Kyoto [2]; cell cycle stage: mitosis
  melting temperature: 53 °C
HeLa Kyoto [3]
  solubility change mitosis (log2): -0.16
HeLa Kyoto [4]; [5]
  thermal stability score: 2.59
HeLa Kyoto [4]; cell cycle stage: mitosis
  thermal stability score: -1.79

Source: the supplement of paper PMC5998384
